We go through two molecules from EP4806921A1 (Daan Biotherapeutics, Inc., dated 2026).

The target of this assay is T1, CEACAM5 protein (Acrobiosystems) (UniProt P06731 35-685).
T1 construct: also called CEACAM5 full-length protein
T1 sequence (looked up): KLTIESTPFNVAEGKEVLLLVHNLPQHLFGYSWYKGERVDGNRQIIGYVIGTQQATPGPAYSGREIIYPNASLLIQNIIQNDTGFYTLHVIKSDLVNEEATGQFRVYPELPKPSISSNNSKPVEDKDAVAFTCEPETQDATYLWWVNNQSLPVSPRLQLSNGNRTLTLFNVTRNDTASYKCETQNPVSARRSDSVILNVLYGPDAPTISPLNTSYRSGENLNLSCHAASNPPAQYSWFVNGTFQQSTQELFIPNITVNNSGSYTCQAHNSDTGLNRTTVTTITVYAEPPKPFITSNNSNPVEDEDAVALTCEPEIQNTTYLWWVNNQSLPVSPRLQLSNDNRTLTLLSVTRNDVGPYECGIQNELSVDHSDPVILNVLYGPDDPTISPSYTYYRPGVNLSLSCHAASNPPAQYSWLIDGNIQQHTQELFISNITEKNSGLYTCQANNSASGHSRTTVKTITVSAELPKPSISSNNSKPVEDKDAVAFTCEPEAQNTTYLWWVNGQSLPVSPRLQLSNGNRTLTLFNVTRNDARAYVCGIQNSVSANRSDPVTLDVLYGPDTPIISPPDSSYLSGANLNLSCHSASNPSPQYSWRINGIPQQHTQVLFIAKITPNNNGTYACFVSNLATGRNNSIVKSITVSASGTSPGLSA
Description: ELISA on coated CEACAM5 protein (Acrobiosystems), antibody 200 nM to 0.0004 nM.

B1: humanized 94E12E2-04 antibody (antibody, V domains shown)
VH: EVQLVESGGGLVQPGGSLRLSCAASGFNIKDNYMHWVRQAPGKGLEWIGWIDPENGDTEYDPKFQGRATMSADTSKNTAYLQMNSLRAEDTAVYYCNIITMATPYPMDYWGQGTLVTVSS
VL: DIQLTQSPSSLSASVGDRVTITCSASTSVIYMHWFQQKPGKAPKLWIYSTSNLASGVPSRFSGSGSGTDYTLTISSLQPEDFATYYCQQRSSYPLTFGQGTKVEIKR
In the case of B1, the binding result is reported as “binds”.

B2: humanized 94E12E2-06 antibody (antibody, V domains shown)
VH: QVQLVQSGAEVKKPGASVKVSCKASGFNIKDNYMHWVRQAPGQGLEWIGWIDPENGDTEYDPKFQGRATMTADTSISTAYMELSRLRSDDTAVYYCNIITMATPYPMDYWGQGTLVTVSS
VL: EIVLTQSPDFQSVTPKEKVTITCSASTSVIYMHWFQQKPDQSPKLWIYSTSNLASGVPSRFSGSGSGTDYTLTINSLEAEDAATYYCQQRSSYPLTFGQGTKLEIKR
As for B2, the binding result is “binds”.
